Residue numbers refer to the chain shown, from its start. Names and notes keep the numbering of the source. Values belong to the binder of their own block, whether it stands above or below them.
Key:
[1] = molecular target: T1, human PD-L1 expressed on cells (CHO-PD-L1, HCC1954, HCC827) (human, UniProt Q9NZQ7 19-290); assay: flow cytometry with human SA, inhibition of PD-1 binding to HCC1954 cells
T1 construct: whole, on cells; also called hPD-L1; PD-L1 expressing cells

[2] = molecular target: CD137 on transgenic NF-kB Jurkat reporter cells (Homo sapiens (Human), UniProt Q07011 24-255); assay: cell-based or functional assay
[3] = molecular target: T1, human PD-L1 expressed on cells …; assay: flow cytometry with human SA, inhibition of PD-1 binding to HCC827 cells
[4] = molecular target: T2, CD3e on Jurkat PD-1 NFAT reporter T cells or on T cells of human PBMCs (human, UniProt P07766 23-207); assay: cell-based or functional assay
[5] = molecular target: T1, human PD-L1 expressed on cells …; assay: flow cytometry, inhibition of biotinylated PD-1 binding to HCC827 cells
[6] = molecular target: T1, human PD-L1 expressed on cells …; assay: flow cytometry, inhibition of biotinylated PD-1 binding to HCC1954 cells
[7] = molecular target: T2, CD3e on Jurkat PD-1 NFAT reporter T …; assay: cell-based or functional assay; remark: listed apart in the source
[8] = molecular target: T3, recombinant human CD3E ECD (SinoBiological, cat. 10977-H08H) (human, UniProt P07766 23-126); assay: SPR, immobilised CD3e ECD, two-state model (ka1)
T3 construct: extracellular domain; bought protein; also called CD3s
T3 sequence (P07766 23-126): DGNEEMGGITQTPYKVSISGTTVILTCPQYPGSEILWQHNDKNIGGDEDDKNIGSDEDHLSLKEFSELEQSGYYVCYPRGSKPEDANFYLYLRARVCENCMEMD

[9] = molecular target: T4, recombinant human Her2 ECD (SinoBiological, cat. 10004-HCCH) (human, UniProt P04626 23-652); assay: SPR, immobilised Her2 ECD
T4 construct: extracellular domain; bought protein

[10] = molecular target: T3, recombinant human CD3E ECD …; assay: SPR, immobilised CD3e ECD, two-state model (kd1)
[11] = molecular target: T3, recombinant human CD3E ECD …; assay: SPR, immobilised CD3e ECD, two-state model
[12] = molecular target: T5, Fc-tagged human PD-L1 extracellular domain (SinoBiological, cat. 10084-H02H) (human, UniProt Q9NZQ7 19-238); assay: SPR, captured Fc-PD-L1 ECD, kinetic
T5 construct: extracellular domain; also called hPD-L1; not shown: Fc tag of the bought protein

[13] = molecular target: T6, recombinant human IL-23R (custom-made by Trenzyme) (human, UniProt Q5VWK5 24-355); assay: SPR, immobilised IL-23R
T6 sequence (looked up): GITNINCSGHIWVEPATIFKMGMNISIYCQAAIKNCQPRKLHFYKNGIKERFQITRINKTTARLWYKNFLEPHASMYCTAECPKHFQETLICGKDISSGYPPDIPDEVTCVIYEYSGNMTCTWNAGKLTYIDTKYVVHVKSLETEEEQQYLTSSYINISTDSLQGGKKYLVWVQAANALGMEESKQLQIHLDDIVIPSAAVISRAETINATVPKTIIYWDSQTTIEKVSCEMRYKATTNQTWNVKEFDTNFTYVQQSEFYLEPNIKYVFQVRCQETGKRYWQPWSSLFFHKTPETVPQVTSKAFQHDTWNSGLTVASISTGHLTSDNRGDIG

[14] = molecular target: T1, human PD-L1 expressed on cells …; assay: flow cytometry, CHO-PD-L1 cells
[15] = molecular target: T1, human PD-L1 expressed on cells …; assay: cell-based or functional assay
[16] = molecular target: T5, Fc-tagged human PD-L1 extracellular …; assay: SPR, captured Fc-PD-L1 ECD, scFv analyte, kinetic
[17] = molecular target: T5, Fc-tagged human PD-L1 extracellular …; assay: SPR, alanine mutants of 33-03-G02

- IC50 [1]: 1.42 µg/mL
- EC50, NFkB reporter gene assay, HCC1954 cells [2]: 0.661 nM
- IC50 [3]: 6.72 µg/mL
B1: PRO1778 (multispecific antibody)
chain 1: not shown
chain 2: DVVMTQSPSSLSASVGDRVTITCQASQIISSRSAWYQQKPGQPPKLLIYQASKLASGVPSRFSGSGSGTDFTLTISSLQPEDFATYYCQCTYIDSNFGAFGGGTKLTVLGGGGGSGGGGSGGGGSGGGGSEVQLVESGGGLVQPGGSLRLSCAASGFSFSSSYWICWVRQAPGKGLEWVGCVFTGDGTTYYASWAKGRFTISRDNSKNTVYLQMNSLRAEDTATYFCARPVSVYYYGMDLWGQGTLVTVSSGGGGSGGGGSQVQLQESGPGLVKPSETLSLTCKVSGFSFSSGYDMCWIRQPPGKGLEWIGCVVAGSVDITYYASWAKGRVTISVDSSKNQFSLKLSSVTAADTAVYYCARKDAYSDAFNLWGQGTLVTVSSGGGSGGGSEVQLVESGGGLVQPGGSLRLSCAASGFSFSANYYPCWVRQAPGKCLEWIGCIYGGSSDITYDANWTKGRFTISRDNSKNTVYLQMNSLRAEDTAVYYCARSAWYSGWGGDLWGQGTLVTVSS

- IC50 [1]: 0.695 µg/mL
- EC50, NFkB reporter gene assay, HCC1954 cells [2]: 0.603 nM
- IC50 [3]: 32.6 µg/mL
B2: PRO1780 (multispecific antibody)
chain 1: not shown
chain 2: DIQMTQSPSSLSASVGDRVTITCQASQSISNRLAWYQQKPGKAPKLLIYSASTLASGVPSRFSGSGSGTDFTLTISSLQPEDFATYYCQSTYYGNDGNAFGCGTKVTVLGGGGGSGGGGSGGGGSGGGGSEVQLVESGGGLVQPGGSLRLSCAASGFSFSANYYPCWVRQAPGKCLEWIGCIYGGSSDITYDANWTKGRFTISRDNSKNTVYLQMNSLRAEDTAVYYCARSAWYSGWGGDLWGQGTLVTVSSGGGGSGGGGSQVQLQESGPGLVKPSETLSLTCKVSGFSFSSGYDMCWIRQPPGKGLEWIGCVVAGSVDITYYASWAKGRVTISVDSSKNQFSLKLSSVTAADTAVYYCARKDAYSDAFNLWGQGTLVTVSSGGGSGGGSEVQLVESGGGLVQPGGSLRLSCAASGFSFSSSYWICWVRQAPGKCLEWVGCVFTGDGTTYYASWAKGRFTISRDNSKNTVYLQMNSLRAEDTATYFCARPVSVYYYGMDLWGQGTLVTVSS

- IC50, NFAT reporter, HCC1954 cells [4]: 4.07 nM
- IC50 [5]: 2.8 µg/mL
- IC50 [6]: 2.85 µg/mL
- fold weaker activation than PRO1454, NFAT reporter, HCC1954 cells [7]: 27 fold
B3: PRO1455 (multispecific antibody)
chain 1: DIQMTQSPSSLSASVGDRVTITCQASENIYSFLAWYQQKPGKAPKLLIYSASKLAAGVPSRFSGSGSGTDFTLTISSLQPEDFATYYCQQTNRYSNPDIYNVFGTGTKVTVLGTVAAPSVFIFPPSDEQLKSGTASVVCLLNNFYPREAKVQWKVDNALQSGNSQESVTEQDSKDSTYSLSSTLTLSKADYEKHKVYACEVTHQGLSSPVTKSFNRGECGGGGSGGGGSDIQMTQSPSSLSASVGDRVTITCQSSQSVFSNNYLAWFQQKPGQSPKRLIYSASTLASGVPSRFSGSGSGTDFTLTISSLQPEDFATYYCLGSYACSSADCYVFGTGTKVTVLGGGGGSGGGGSGGGGSGGGGSEVQLVESGGGLVQPGGSLRLSCAASGFSLSSYDMSWVRQAPGKGLAWIGASYASGPTYYASWAKGRFTISRDNSKNTVYLQMNSLRAEDTATYFCARGGWTGTSHSNIWGQGTLVTVSS
chain 2: EVQLVESGGGLVQPGGSLRLSCAASGIDFNSNYYMCWVRQAPGKGLEWIGCIYVGSHVNTYYANWAKGRFTISRDNSKNTVYLQMNSLRAEDTAVYYCATSGSSVLYFKFWGQGTLVTVSSASTKGPSVFPLAPSSKSTSGGTAALGCLVKDYFPEPVTVSWNSGALTSGVHTFPAVLQSSGLYSLSSVVTVPSSSLGTQTYICNVNHKPSNTKVDKKVEPKSCGGGGSGGGGSDIQMTQSPSSLSASVGDRVTITCQASQSINDYLAWYQQKPGKAPKLLIYKASTLASGVPSRFSGSGSGTDFTLTISSLQPEDFATYYCQQAYIITDIDNVFGTGTKVTVLGGGGGSGGGGSGGGGSGGGGSQVQLQESGPGLVKPSETLSLTCKVSGFSFSSGYDMCWIRQPPGKGLEWIGCVVAGSVDITYYASWAKGRVTISVDSSKNQFSLKLSSVTAADTAVYYCARKDAYSDAFNLWGQGTLVTVSS

- kon [8]: 197000 M⁻¹ s⁻¹
- IC50, NFAT reporter, HCC1954 cells [4]: 172 nM
- rel. max. activation vs PRO1497, NFAT reporter, HCC1954 cells [4]: 71%
- IC50 [5]: 8.54 µg/mL
- koff [10]: 0.00584 s⁻¹
- IC50 [6]: 7.05 µg/mL
- KD1 [11]: 29.6 nM
- Kd [11]: 19.5 nM
- kd2 [11]: 0.00198 s⁻¹
- Kd [12]: 332 nM
- koff [12]: 0.000379 s⁻¹
- kon [12]: 1140 M⁻¹ s⁻¹
- fold weaker activation than PRO1497, NFAT reporter, HCC1954 cells [7]: 475 fold
- Kd [13]: 0.563 nM
- koff [13]: 0.000278 s⁻¹
- kon [13]: 495000 M⁻¹ s⁻¹
B4: PRO1498 (multispecific antibody)
chain 1: B3 chain 1
chain 2: B3 chain 2 with Q324A
- binding result [9]: no binding (tested: 90 nM highest concentration)

- EC50 [14]: 0.0055 µg/mL
- IC50, neutralization of PD-L1 in NF-AT potency assay [15]: 0.0204 µg/mL
- Kd [16]: 0.0781 nM
- koff [16]: 0.000139 s⁻¹
- kon [16]: 1.78e+06 M⁻¹ s⁻¹
B5: PRO830 (scFv, V domains shown)
VH: QVQLQESGPGLVKPSETLSLTCKVSGFSFSSGYDMCWIRQPPGKGLEWIGCVVAGSVDITYYASWAKGRVTISVDSSKNQFSLKLSSVTAADTAVYYCARKDAYSDAFNLWGQGTLVTVSS
VL: DIQMTQSPSSLSASVGDRVTITCQASQSINDYLAWYQQKPGKAPKLLIYKASTLASGVPSRFSGSGSGTDFTLTISSLQPEDFATYYCQQGYIITDIDNVFGTGTKVTVLG
notes: also called 33-03-G02; parental scFv

- EC50 [14]: 333 µg/mL
- IC50, neutralization of PD-L1 in NF-AT potency assay [15]: 0.828 µg/mL
- Kd [16]: 12.2 nM
- koff [16]: 0.0205 s⁻¹
- kon [16]: 1.67e+06 M⁻¹ s⁻¹
- fold reduction of affinity vs the original domain [17]: > 100 fold
B6: PRO1075 (scFv, V domains shown)
VH: B5 VH
VL: B5 VL with Q90A
notes: also called 33-03-G02 VL-Q108A

- EC50 [14]: 51.2 µg/mL
- IC50, neutralization of PD-L1 in NF-AT potency assay [15]: 1.28 µg/mL
- Kd [16]: 16.5 nM
- koff [16]: 0.0328 s⁻¹
- kon [16]: 1.99e+06 M⁻¹ s⁻¹
- fold reduction of affinity vs the original domain [17]: > 100 fold
B7: PRO1089 (scFv, V domains shown)
VH: B5 VH with Y104A
VL: B5 VL
notes: also called 33-03-G02 VH-Y112A

From US20220411536A1 (NUMAB THERAPEUTICS, published 2022)
